For this assay, the target named is T1, biotinylated ubiquitin (UniProt P0CG48 1-76, biotin).
T1 construct: ubiquitin (monoubiquitin); also called biotin-Ub; monoubiquitin; source: bought: Boston Biochem (Cat# UB-570)
Briefly: BLI; Octet Red384; biotinylated ubiquitin immobilised on streptavidin biosensors; analyte fourfold dilutions starting at 5 μM; 25 °C; 150 mM NaCl, 20 mM Tris 7.5, 1 mg/mL BSA, 0.01% Tween-20, 1 mM TCEP; association 180 s, dissociation 300 s. The note with it: both partners purified.

B1: UCHL5^WT (enzyme, UniProt Q9Y5K5 1-329, looked up)
chain: MTGNAGEWCLMESDPGVFTELIKGFGCRGAQVEEIWSLEPENFEKLKPVHGLIFLFKWQPGEEPAGSVVQDSRLDTIFFAKQVINNACATQAIVSVLLNCTHQDVHLGETLSEFKEFSQSFDAAMKGLALSNSDVIRQVHNSFARQQMFEFDTKTSAKEEDAFHFVSYVPVNGRLYELDGLREGPIDLGACNQDDWISAVRPVIEKRIQKYSEGEIRFNLMAIVSDRKMIYEQKIAELQRQLAEEEPMDTDQGNSMLSAIQSEVAKNQMLIEEEVQKLKRYKIENIRRKHNYLPFIMELLKTLAEHQQLIPLVEKAKEKQNAKKAQETK
notes: ubiquitin C-terminal hydrolase L5 (UCHL5), full-length wild type; also called UCH37; source: E. coli BL21-Gold(DE3), purified (Ni-NTA, SEC)
As to B1, the binding result is reported as “binds”.

The values are drawn from paper PMC8322077, “Antibody toolkit reveals N-terminally ubiquitinated substrates of UBE2W” (Nature Communications, 2021).
